From publication PMC10491607 (Cell Discovery, 2023)

Target: T1, Angiotensin-converting enzyme 2 (ACE2) (UniProt Q9BYF1 18-805, glycosylation moieties seen in the map)
T1 construct: source: co-transfected in HEK-293T cells for the current recordings
Assay: cryo-EM structure; ACE2-SIT1 complex bound to Pro, 3.3 Å overall (transmembrane domain 3.7 Å local)
Conditions: both partners purified

T1 sequence (Q9BYF1 18-805): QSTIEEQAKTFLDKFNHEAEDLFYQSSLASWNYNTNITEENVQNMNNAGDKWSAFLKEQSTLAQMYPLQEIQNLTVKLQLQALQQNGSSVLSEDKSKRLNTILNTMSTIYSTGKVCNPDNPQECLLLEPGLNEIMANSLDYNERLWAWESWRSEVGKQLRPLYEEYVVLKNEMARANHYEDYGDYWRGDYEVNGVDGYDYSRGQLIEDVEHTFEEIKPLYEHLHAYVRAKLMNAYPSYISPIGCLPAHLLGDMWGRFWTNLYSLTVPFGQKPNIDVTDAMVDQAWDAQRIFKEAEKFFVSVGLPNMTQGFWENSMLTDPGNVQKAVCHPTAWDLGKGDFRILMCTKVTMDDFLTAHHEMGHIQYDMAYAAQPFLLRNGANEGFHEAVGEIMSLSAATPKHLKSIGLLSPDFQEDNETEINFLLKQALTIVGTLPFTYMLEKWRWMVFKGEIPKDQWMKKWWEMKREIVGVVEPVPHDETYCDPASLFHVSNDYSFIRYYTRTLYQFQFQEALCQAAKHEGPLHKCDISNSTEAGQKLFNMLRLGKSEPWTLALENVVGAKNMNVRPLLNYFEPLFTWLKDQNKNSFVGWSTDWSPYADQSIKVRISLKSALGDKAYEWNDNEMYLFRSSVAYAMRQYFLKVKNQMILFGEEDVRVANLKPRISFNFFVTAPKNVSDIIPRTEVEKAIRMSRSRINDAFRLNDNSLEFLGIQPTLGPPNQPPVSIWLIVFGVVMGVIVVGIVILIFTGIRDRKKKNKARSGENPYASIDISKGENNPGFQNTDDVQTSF

binding result: binds
B1: SIT1 (SLC6A20) (natural protein)
chain: MEKARPLWANSLQFVFACISYAVGLGNVWRFPYLCQMYGGGSFLVPYIIMLIVEGMPLLYLELAVGQRMRQGSIGAWRTISPYLSGVGVASVVVSFFLSMYYNVINAWAFWYLFHSFQDPLPWSVCPLNGNHTGYDEECEKASSTQYFWYRKTLNISPSLQENGGVQWEPALCLLLAWLVVYLCILRGTESTGKVVYFTASLPYCVLIIYLIRGLTLHGATNGLMYMFTPKIEQLANPKAWINAATQIFFSLGLGFGSLIAFASYNEPSNNCQKHAIIVSLINSFTSIFASIVTFSIYGFKATFNYENCLKKVSLLLTNTFDLEDGFLTASNLEQVKGYLASAYPSKYSEMFPQIKNCSLESELDTAVQGTGLAFIVYTEAIKNMEVSQLWSVLYFFMLLMLGIGSMLGNTAAILTPLTDSKIISSHLPKEAISGLVCLVNCAIGMVFTMEAGNYWFDIFNDYAATLSLLLIVLVETIAVCYVYGLRRFESDLKAMTGRAVSWYWKVMWAGVSPLLIVSLFVFYLSDYILTGTLKYQAWDASQGQLVTKDYPAYALAVIGLLVASSTMCIPLAALGTFVQRRLKRGDADPVA
notes: also called WT; source: co-transfected in HEK-293T cells for the current recordings
